Test results: IntAct's records for PubMed 17159145

B1: Epstein-Barr nuclear antigen leader protein (Epstein-Barr virus (strain B95-8) (HHV-4)), Q8AZK7 (parent)
chain: MGDRSEGPGPTRPGPPGIGPEGPLGQLLRRHRSPSPTRGGQEPRRVRRRVLVQQEEEVVSGSPSGPRGDRSEGPGPTRPGPPGIGPEGPLGQLLRRHRSPSPTRGGQEPRRVRRRVLVQQEEEVVSGSPSGPRGDRSEGPGPTRPGPPGIGPEGPLGQLLRRHRSPSPTRGGQEPRRVRRRVLVQQEEEVVSGSPSGPRGDRSEGPGPTRPGPPGIGPEGPLGQLLRRHRSPSPTRGGQEPRRVRRRVLVQQEEEVVSGSPSGPRGDRSEGPGPTRPGPPGIGPEGPLGQLLRRHRSPSPTRGGQEPRRVRRRVLVQQEEEVVSGSPSGPRGDRSEGPGPTRPGPPGIGPEGPLGQLLRRHRSPSPTRGGQEPRRVRRRVLVQQEEEVVSGSPSGPRGDRSEGPGPTRPGPPGIGPEGPLGQLLRRHRSPSPTRGGQEPRRVRRRVLVQQEEEVVSGSPSGPLRPRPRPPARSLREWLLRIRDHFEPPTVTTQRQSVYIEEEEDED

Variants of: B1
Details: with hdac4_human HDAC4, P56524
Chain of hdac4_human HDAC4, P56524 (P56524 whole entry): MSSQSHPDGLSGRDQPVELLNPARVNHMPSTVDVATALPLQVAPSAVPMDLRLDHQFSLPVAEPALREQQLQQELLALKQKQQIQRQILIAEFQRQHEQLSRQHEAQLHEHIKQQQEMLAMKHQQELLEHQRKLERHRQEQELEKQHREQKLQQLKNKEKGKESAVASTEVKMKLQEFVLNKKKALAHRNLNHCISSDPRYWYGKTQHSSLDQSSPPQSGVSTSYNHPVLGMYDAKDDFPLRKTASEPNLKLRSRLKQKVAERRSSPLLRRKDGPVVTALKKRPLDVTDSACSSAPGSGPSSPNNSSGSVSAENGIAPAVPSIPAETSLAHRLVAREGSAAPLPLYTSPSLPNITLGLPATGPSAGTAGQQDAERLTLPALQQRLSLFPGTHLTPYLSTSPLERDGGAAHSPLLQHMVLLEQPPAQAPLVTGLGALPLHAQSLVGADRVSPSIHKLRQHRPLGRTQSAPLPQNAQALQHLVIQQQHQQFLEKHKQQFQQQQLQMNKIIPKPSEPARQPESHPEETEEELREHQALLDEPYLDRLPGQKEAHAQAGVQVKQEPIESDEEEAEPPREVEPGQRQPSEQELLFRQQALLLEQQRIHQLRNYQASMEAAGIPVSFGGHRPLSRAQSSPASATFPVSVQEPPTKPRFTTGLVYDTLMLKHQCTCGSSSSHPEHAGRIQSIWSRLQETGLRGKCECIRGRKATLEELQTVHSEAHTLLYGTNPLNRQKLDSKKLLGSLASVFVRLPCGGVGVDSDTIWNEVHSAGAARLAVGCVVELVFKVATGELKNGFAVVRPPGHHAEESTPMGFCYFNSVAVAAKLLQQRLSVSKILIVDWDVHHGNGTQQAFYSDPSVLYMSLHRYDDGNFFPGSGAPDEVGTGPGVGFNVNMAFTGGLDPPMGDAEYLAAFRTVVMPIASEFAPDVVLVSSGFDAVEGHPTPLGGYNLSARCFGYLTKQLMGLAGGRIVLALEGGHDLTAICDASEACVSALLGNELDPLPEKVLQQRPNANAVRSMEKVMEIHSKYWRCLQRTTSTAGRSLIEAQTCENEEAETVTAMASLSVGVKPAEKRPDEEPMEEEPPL

Variant	effect of a mutation on the interaction
MGDRSEGPGPTRPGPPGIGPEGPLGQLLRRHRAPAPTRGGQEPRRVRRRVLVQQEEEVVSGAPSGPRGDRSEGPGPTRPGPPGIGPEGPLGQLLRRHRSPSPTRGGQEPRRVRRRVLVQQEEEVVSGSPSGPRGDRSEGPGPTRPGPPGIGPEGPLGQLLRRHRSPSPTRGGQEPRRVRRRVLVQQEEEVVSGSPSGPRGDRSEGPGPTRPGPPGIGPEGPLGQLLRRHRSPSPTRGGQEPRRVRRRVLVQQEEEVVSGSPSGPRGDRSEGPGPTRPGPPGIGPEGPLGQLLRRHRSPSPTRGGQEPRRVRRRVLVQQEEEVVSGSPSGPRGDRSEGPGPTRPGPPGIGPEGPLGQLLRRHRSPSPTRGGQEPRRVRRRVLVQQEEEVVSGSPSGPRGDRSEGPGPTRPGPPGIGPEGPLGQLLRRHRSPSPTRGGQEPRRVRRRVLVQQEEEVVSGSPSGPLRPRPRPPARSLREWLLRIRDHFEPPTVTTQRQSVYIEEEEDED [S33A;S35A;S62A]	decreasing interaction strength
